Test results: patent US20240132593A1 (KINETA, published 2024)
Where a chain is given by its changes, count along the chain named. In names and notes the source's numbering stands.

B1: Spiked Peptide 28 (VQTGKDAPSNCVVYP) (peptide)
peptide: VQTGKDAPSNCVVYP
notes: synthetic overlapping peptide from human VISTA
B2: Spiked Peptide 26 (HRVHGAMELQVQTGK) (peptide)
peptide: HRVHGAMELQVQTGK
notes: as for B1
B3: Spiked Peptide 25 (HHHSEHRVHGAMELQ) (peptide)
peptide: HHHSEHRVHGAMELQ
notes: as for B1
B4: Spiked Peptide 31 (SSSQESENITAA) (peptide)
peptide: SSSQESENITAA
notes: as for B1
B5: Spiked Peptide 29 (DAPSNCVVYPSSSQE) (peptide)
peptide: DAPSNCVVYPSSSQE
notes: as for B1
B6: Spiked Peptide 27 (AMELQVQTGKDAPSN) (peptide)
peptide: AMELQVQTGKDAPSN
notes: as for B1
B7: Spiked Peptide 24 (VVEIRHHHSEHRVHG) (peptide)
peptide: VVEIRHHHSEHRVHG
notes: as for B1
B8: Spiked Peptide 30 (CVVYPSSSQESENIT) (peptide)
peptide: CVVYPSSSQESENIT
notes: as for B1
B9: Antibody No. 474.1 with VH Y32H, VH Y52H (antibody, V domains shown)
VH: QVQLQESGPGLVKPSETLSLTCTVSGGSISSHYWSWIRQPPGKGLEWIGYIHYSGSTNYNPSLKSRVTISVDTSKSQFSLKLSSVTAADTAVYYCARDIPAFAFDIWGQGTMVIVSS
VL: EIVLTQSPATLSLSPGERATLSCRASQSVSYYLAWYQQKPGQAPRLLIYDAFNRATGIPARFSGSGSGTDFTLTISSLEPEDFAVYYCQQRINWPLTFGGGTKVEIK
B10: Antibody No. 474.1 with VL Y31H, VH Y32H, VH Y52H (antibody, V domains shown)
VH: B9 VH
VL: B9 VL with Y31H
B11: Antibody No. 474.1 with VL Y32H, VH Y32H (antibody, V domains shown)
VH: B9 VH with H52Y
VL: B9 VL with Y32H
B12: Antibody No. 474.1 with VL Y32H, VH Y32H, VH Y52H (antibody, V domains shown)
VH: B9 VH
VL: B9 VL with Y32H
B13: Antibody No. 474.1 with VL Y32H, VH Y32H, VH Y33H (antibody, V domains shown)
VH: B9 VH with Y33H, H52Y
VL: B9 VL with Y32H
B14: Antibody No. 474.1 with VH Y32H, VH Y33H (antibody, V domains shown)
VH: B9 VH with Y33H, H52Y
VL: B9 VL
B15: Antibody No. 474.1 with VH Y32H, VH Y33H, VH Y52H (antibody, V domains shown)
VH: B9 VH with Y33H
VL: B9 VL
B16: Antibody No. 474.1 with VL Y31H, VH Y52H (second of two rows so labelled, the 40th table r13) (antibody, human IgG1, V domains shown)
VH: B9 VH with H32Y
VL: B9 VL with Y31H
B17: Antibody No. 474.1 with VL Y31H, VH Y32H, VH Y33H (antibody, V domains shown)
VH: B9 VH with Y33H, H52Y
VL: B9 VL with Y31H
B18: Antibody No. 474.1 with VL Y32H, VH Y52H (antibody, V domains shown)
VH: B9 VH with H32Y
VL: B9 VL with Y32H
B19: Antibody No. 474.1 with VL Y31H, VH Y32H (antibody, V domains shown)
VH: B9 VH with H52Y
VL: B9 VL with Y31H
B20: Antibody No. 474.1 with VL Y32H, VH Y33H (antibody, V domains shown)
VH: B9 VH with H32Y, Y33H, H52Y
VL: B9 VL with Y32H
B21: Antibody No. 150.1 (antibody, human IgG1, kappa)
heavy: QVQLQESGPGLVKPSETLSLTCTVSGGSISSYYWSWIRQPPGKGLEWIGYIYYSGSTNYNPSLKSRVTISVDTSKSQFSLKLSSVTAADTAVYYCARDIPAFAFDIWGQGTMVIVSSASTKGPSVFPLAPSSKSTSGGTAALGCLVKDYFPEPVTVSWNSGALTSGVHTFPAVLQSSGLYSLSSVVTVPSSSLGTQTYICNVNHKPSNTKVDKKVEPKSCDKTHTCPPCPAPELLGGPSVFLFPPKPKDTLYITREPEVTCVVVDVSHEDPEVKFNWYVDGVEVHNAKTKPREEQYNSTYRVVSVLTVLHQDWLNGKEYKCKVSNKALPAPIEKTISKAKGQPREPQVYTLPPSRDELTKNQVSLTCLVKGFYPSDIAVEWESNGQPENNYKTTPPVLDSDGSFFLYSKLTVDKSRWQQGNVFSCSVMHEALHNHYTQKSLSLSPGK
light: not shown
notes: Human IgG1 with the YTE mutations (M252Y, S254T, T256E, EU numbering), kappa light chain; It is left out here; copies: 2 + 2
B22: Antibody No. 269.1 (antibody, human IgG1, kappa)
light: EIVLTQSPDFQSVTPKEKVTITCRASQSIGSSLHWYQQKPDQSPKLLIKYASQSISGVPSRFSGSGSGTDFTLTINSLEAEDAAAYYCHQSSSLPQTFGQGTKVEIKRTVAAPSVFIFPPSDEQLKSGTASVVCLLNNFYPREAKVQWKVDNALQSGNSQESVTEQDSKDSTYSLSSTLTLSKADYEKHKVYACEVTHQGLSSPVTKSFNRGEC
heavy: not shown

biological target: T1, Antibody No. 465.1; assay: peptide blocking ELISA on plate-bound VISTA, peptide 20 ug/mL
T1 construct: also called Ab No. 465.1

Compared with B1, B2 is higher in “percent reduction in ELISA signal” value: 0% for the first, 2% for the second.

First: B3
Second: B4
The “percent reduction in ELISA signal” value of the first is higher: 67% for the first, 5% for the second.

Compared with B5, B6 is lower in “percent reduction in ELISA signal” value: 14% for the first, 3% for the second.

First: B7
Second: B8
The “percent reduction in ELISA signal” value of the first is higher: 43% for the first, 0% for the second.

biological target: VSTB174; assay: as above
Sequence (VH, as listed by the source, chain 1 of 2): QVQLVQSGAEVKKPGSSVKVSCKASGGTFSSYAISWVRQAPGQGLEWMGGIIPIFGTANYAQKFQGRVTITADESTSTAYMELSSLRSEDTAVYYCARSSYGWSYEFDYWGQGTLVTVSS
Sequence (VL, as listed by the source, chain 2 of 2): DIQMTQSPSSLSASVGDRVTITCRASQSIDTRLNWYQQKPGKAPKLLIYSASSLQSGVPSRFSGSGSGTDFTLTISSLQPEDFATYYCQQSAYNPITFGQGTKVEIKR

Going from B1 to B2, the “percent reduction in ELISA signal” value rises from 5% to 25%.

First: B3
Second: B4
The “percent reduction in ELISA signal” value of the first is higher: 83% for the first, 27% for the second.

First: B5
Second: B6
The “percent reduction in ELISA signal” value of the first is lower: 10% for the first, 24% for the second.

Compared with B7, B8 is lower in “percent reduction in ELISA signal” value: 82% for the first, 21% for the second.

biological target: Antibody No. 245.1; assay: as above

Going from B1 to B2, the “percent reduction in ELISA signal” value falls from 5% to 0%.

First: B3
Second: B4
The “percent reduction in ELISA signal” value of the first is higher: 52% for the first, 8% for the second.

B5 and B6 are the same in “percent reduction in ELISA signal” value: 0% for the first, 0% for the second.

First: B7
Second: B8
The “percent reduction in ELISA signal” value of the first is higher: 41% for the first, 0% for the second.

biological target: T2, VISTA-His ECD (Sino Biological 13482-H08H) (human, UniProt Q9H7M9 33-194); assay: BLI (Octet K2), ratio of the pH 6.0 fold change to the pH 7.4 fold change
T2 construct: Bought protein; also called VISTA-ECD; not shown: His tag

Going from B9 to B10, the “ΔKdis (pH 6.0)/ΔKdis (pH 7.4)” value falls from 3.4 to 2.

Going from B11 to B12, the “ΔKdis (pH 6.0)/ΔKdis (pH 7.4)” value falls from 5.9 to 1.8.

First: B13
Second: B14
The “ΔKdis (pH 6.0)/ΔKdis (pH 7.4)” value of the first is lower: 2.4 for the first, 6.9 for the second.

Compared with B15, B16 is lower in “ΔKdis (pH 6.0)/ΔKdis (pH 7.4)” value: 5.2 for the first, 3.8 for the second.

First: B17
Second: B18
The “ΔKdis (pH 6.0)/ΔKdis (pH 7.4)” value of the first is lower: 1.5 for the first, 3.4 for the second.

Going from B19 to B20, the “ΔKdis (pH 6.0)/ΔKdis (pH 7.4)” value falls from 5.8 to 2.7.

biological target: T3, rhFcRn (R&D) (human (printed as rhFcRn), UniProt P55899 24-297; P61769 21-119); assay: BLI Octet K2, antibody on FAB2G sensor, rhFcRn analyte (row of 50 nM), pH 6.0, 1:1 global fit
T3 construct: Bought reagent; also called neonatal Fc receptor; FcRn ligand

B21 showed a Kd of 84.1 nM.

B21 was tested, and the koff was 0.0192 s⁻¹.

Binder B21 has a kon of 228000 M⁻¹ s⁻¹.

biological target: T2, VISTA-His ECD (Sino Biological …); assay: BLI (Octet K2), ratio of off-rates at pH 7.4 to control Ab No. 245.1

First: B9
Second: B10
The “Kdis (pH 7.4) ÷ Kdis, Ab No. 245.1 (pH 7.4)” value (shortened to “Kdis … Ab No. 245.1 (pH 7.4)”) of the first is lower: 5 s⁻¹ for the first, 61 s⁻¹ for the second.

First: B11
Second: B12
The “Kdis … Ab No. 245.1 (pH 7.4)” value of the first is lower: 15 s⁻¹ for the first, 71 s⁻¹ for the second.

Compared with B13, B14 is lower in “Kdis … Ab No. 245.1 (pH 7.4)” value: 56 s⁻¹ for the first, 4 s⁻¹ for the second.

Compared with B15, B16 is higher in “Kdis … Ab No. 245.1 (pH 7.4)” value: 14 s⁻¹ for the first, 37 s⁻¹ for the second.

Going from B17 to B18, the “Kdis … Ab No. 245.1 (pH 7.4)” value falls from 68 s⁻¹ to 45 s⁻¹.

Compared with B19, B20 is higher in “Kdis … Ab No. 245.1 (pH 7.4)” value: 12 s⁻¹ for the first, 52 s⁻¹ for the second.

biological target: T4, hVISTA ECD-Fc R54A, F62A, Q63A (human); assay: ELISA on immobilized VISTA-Fc (5 µg/mL), antibody at 10 µg/mL
T4 construct: also called human VISTA-Fc 54A62A63A; triple VISTA-Fc mutant

B22: binds.

biological target: T3, rhFcRn (R&D); assay: BLI Octet K2, antibody on FAB2G sensor, rhFcRn analyte (row of 200 nM), pH 6.0, 1:1 global fit

For B21, the Kd was 84.1 nM.

With B21 the koff was 0.0192 s⁻¹.

B21 was tested, and the kon was 228000 M⁻¹ s⁻¹.

biological target: T3, rhFcRn (R&D); assay: BLI Octet K2, antibody on FAB2G sensor, rhFcRn analyte (row of 800 nM), pH 6.0, 1:1 global fit

In the case of B21, the Kd is reported as 84.1 nM.

With B21 the koff was 0.0192 s⁻¹.

Binder B21 has a kon of 228000 M⁻¹ s⁻¹.

biological target: T1, Antibody No. 465.1; assay: peptide blocking ELISA on plate-bound VISTA, peptide 2 ug/mL

B1 and B2 are the same in “percent reduction in ELISA signal” value: 0% for the first, 0% for the second.

First: B3
Second: B4
The “percent reduction in ELISA signal” value of the first is higher: 10% for the first, 0% for the second.

B5 and B6 are the same in “percent reduction in ELISA signal” value: 0% for the first, 0% for the second.

Compared with B7, B8 is lower in “percent reduction in ELISA signal” value: 16% for the first, 0% for the second.

biological target: VSTB174; assay: as above

Compared with B1, B2 is higher in “percent reduction in ELISA signal” value: 0% for the first, 17% for the second.

Going from B3 to B4, the “percent reduction in ELISA signal” value falls from 45% to 15%.

Compared with B5, B6 is higher in “percent reduction in ELISA signal” value: 8% for the first, 13% for the second.

Going from B7 to B8, the “percent reduction in ELISA signal” value falls from 48% to 12%.

biological target: Antibody No. 245.1; assay: as above

B1 and B2 are the same in “percent reduction in ELISA signal” value: 0% for the first, 0% for the second.

Compared with B3, B4 is lower in “percent reduction in ELISA signal” value: 10% for the first, 0% for the second.

B5 and B6 are the same in “percent reduction in ELISA signal” value: 0% for the first, 0% for the second.

First: B7
Second: B8
The “percent reduction in ELISA signal” value of the first is higher: 8% for the first, 0% for the second.
